Test results: publication PMC6458997

Tests used:
AimR (SPbeta) [1] = biological target: T1, AimR (SPbeta) (Bacillus subtilis phage SPbeta (cloned …, UniProt O31927 1-386)); experiment: EMSA; apo; EMSA: 50 mM HEPES pH 7.5, 5 mM MgCl2, 75 mM NaCl, 0.5 mM EDTA; 0.4 uM DNA, 4 uM AimR; 10 min at room temperature; 8% PAGE in TBE at 4 C or agarose in TAE at room temperature; conditions: protein: recombinant; tags: N-terminal 6xHis-TEV, cleaved; chain copies: 2
T1 sequence: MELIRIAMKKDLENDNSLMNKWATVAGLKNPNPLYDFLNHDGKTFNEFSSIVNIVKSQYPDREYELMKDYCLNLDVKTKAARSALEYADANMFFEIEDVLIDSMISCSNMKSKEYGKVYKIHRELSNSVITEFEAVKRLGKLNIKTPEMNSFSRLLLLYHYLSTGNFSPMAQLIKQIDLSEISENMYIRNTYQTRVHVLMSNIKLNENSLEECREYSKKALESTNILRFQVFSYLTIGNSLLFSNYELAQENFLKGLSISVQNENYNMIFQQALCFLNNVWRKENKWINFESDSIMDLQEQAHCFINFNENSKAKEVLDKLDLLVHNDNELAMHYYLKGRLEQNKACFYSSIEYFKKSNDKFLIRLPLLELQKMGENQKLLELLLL

AimR (SPbeta) [2] = biological target: T1, AimR (SPbeta); experiment: X-ray crystallography; 2.2 A; 200 mM MgCl2, pH 7.5; AimR:DNA 2:1; EMSA: 50 mM HEPES pH 7.5, 5 mM MgCl2, 75 mM NaCl, 0.5 mM EDTA; 0.4 uM DNA, 4 uM AimR; 10 min at room temperature; 8% PAGE in TBE at 4 C or agarose in TAE at room temperature; conditions: protein: recombinant; tags: N-terminal 6xHis-TEV, cleaved; chain copies: 2
AimR (phi3T) = biological target: T2, AimR (phi3T) (Bacillus phage phi3T, UniProt P0DOE3 1-378); experiment: EMSA; EMSA: 50 mM HEPES pH 7.5, 5 mM MgCl2, 75 mM NaCl, 0.5 mM EDTA; 0.4 uM DNA, 4 uM AimR; 10 min at room temperature; 8% PAGE in TBE at 4 C or agarose in TAE at room temperature; conditions: protein: recombinant; tags: N-terminal 6xHis; same purification protocol as SPbeta AimR
T2 sequence: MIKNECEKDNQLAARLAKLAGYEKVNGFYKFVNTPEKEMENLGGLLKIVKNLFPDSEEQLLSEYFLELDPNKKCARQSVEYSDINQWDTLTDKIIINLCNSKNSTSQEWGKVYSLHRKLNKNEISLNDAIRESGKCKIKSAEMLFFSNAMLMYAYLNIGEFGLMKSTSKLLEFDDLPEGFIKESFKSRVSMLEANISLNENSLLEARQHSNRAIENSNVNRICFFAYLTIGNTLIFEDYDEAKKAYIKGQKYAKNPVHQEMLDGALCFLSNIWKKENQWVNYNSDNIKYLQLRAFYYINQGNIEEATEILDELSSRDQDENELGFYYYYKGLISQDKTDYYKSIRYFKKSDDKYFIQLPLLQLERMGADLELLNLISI

B1: SPbeta operator WT 45 bp (dsDNA)
DNA 1: GTTGATCACTAGATGTTATTAAAACCTAATATTTAAGTGATGGCC
DNA 2: GGCCATCACTTAAATATTAGGTTTTAATAACATCTAGTGATCAAC
Does B1 bind (AimR (SPbeta) [1])?
Result: binds

B2: crystal operator 43 bp (dsDNA)
DNA 1: TTGATCACTAGATGTTATTAAAACCTAATATTTAAGTGATGGC
DNA 2: GCCATCACTTAAATATTAGGTTTTAATAACATCTAGTGATCAA
Does B2 bind (AimR (SPbeta) [2])?
Result: binds

B3: phi3T operator 37 bp (dsDNA)
DNA 1: ATGTTCCAGAAATTCAAAAATCAAAAAATAAGAACAT
DNA 2: ATGTTCTTATTTTTTGATTTTTGAATTTCTGGAACAT
Does B3 bind (AimR (phi3T))?
Result: binds
